Assay results taken from patent publication US20220089678A1 (CARTESIAN THERAPEUTICS, published 2022).
Substitutions are numbered along the chain they refer to.

B1: CAR comprising scFv-Y32 (SEQ ID NO: 57) (other)
chain: DIVLTQSPSSLSASVGDRATISCRASESVTILGSHLIHWYQQKPGQAPKLLIQLASNVQTGVPARFSGSGSGTDFTLTISSVEPEDVAVYYCLQSRTIPRTFGQGTKVEIKGSTSGSGKPGSGEGSTKGQIQLVQSGPELKKPGGSVKISCAASGYTFTDYSINWVRQAPGKGLEWVGWINTETREPAYAYDFRGRFTFSADTSKSTAYLQMNSLRAEDTAVYYCALDYSYAMDYWGQGTLVTVSS
notes: CAR on mRNA-electroporated human CD8+ T cells; Only the scFv is identified; not shown: rest of the CAR (hinge, transmembrane, cytoplasmic domains) not specified for this construct
B2: CAR comprising scFv-10′ (SEQ ID NO: 66) (other)
chain: B1 chain with D160S, Y191Q, D192G, R194T, S230L, A232S, M233L, Y235F
notes: as for B1
B3: CAR comprising scFv-12′ (SEQ ID NO: 68) (other)
chain: B1 chain with R96K, T97N, I98F, D160S, S162D, S230L, A232S, M233L, Y235F
notes: as for B1
B4: CAR comprising scFv-21′ (SEQ ID NO: 70) (other)
chain: B1 chain with Q53N, Q59N
notes: as for B1
B5: CAR comprising scFv-9′ (SEQ ID NO: 65) (other)
chain: DIVLTQSPSSLSASVGDRATISCRASESVSFLGINLIHWYQQKPGQAPKLLIYSASNLQSGVPARFSGSGSGTDFTLTISSVEPEDVAVYYCLQSKNFPRTFGQGTKVEIKGSTSGSGKPGSGEGSTKGQIQLVQSGPELKKPGGSVKISCAASGYTFTDYSINWVRQAPGKGLEWVGWINTETREPAYAYDFRGRFTFSADTSKSTAYLQMNSLRAEDTAVYYCALDYSYAMDYWGQGTLVTVSS
notes: as for B1
B6: CAR comprising scFv-4′ (SEQ ID NO: 63) (other)
chain: B1 chain with S230T, A232G
notes: as for B1
B7: CAR comprising scFv-8′ (SEQ ID NO: 64) (other)
chain: B5 chain with K96R, N97T, F98L
notes: as for B1
B8: CAR comprising scFv-1′ (SEQ ID NO: 62) (other)
chain: B1 chain with D160S, S162D
notes: as for B1
B9: CAR comprising scFv-11′ (SEQ ID NO: 67) (other)
chain: DIVLTQSPSSLSASVGDRATISCRASESVTILGSHLIHWYQQKPGQAPKLLIQLASNVQTGVPARFSGSGSGTDFTLTISSVEPEDVAVYYCLQSRTIPRTFGQGTKVEIKGSTSGSGKPGSGEGSTKGQIQLVQSGPELKKPGGSVKISCAASGYTFTSYDINWVRQAPGKGLEWVGWINTNTGNPTYAQGFTGRFTFSADTSKSTAYLQMNSLRAEDTAVYYCALDYTYGMDYWGQGTLVTVSS
notes: as for B1
B10: CAR comprising scFv-Y37 (SEQ ID NO: 60) (other)
chain: DIVLTQSPASLAVSPGQRATITCRASESVTILGSHLIHWYQQKPGQPPKLLIQLASNVQTGVPARFSGSGSGTDFTLTISSVEPEDTANYYCLQSRTIPRTFGQGTKVEIKGSTSGSGKPGSGEGSTKGQIQLVQSGPELKKPGGSVKISCKASGYTFTDYSINWVRQAPGKGLEWVGWINTETREPAYAYDFTGRFTFSADTSKSMAYLQINSLRAEDTAVYYCALDYSYAMDYWGQGTLVTVSS
notes: as for B1
B11: CAR comprising scFv-13′ (SEQ ID NO: 69) (other)
chain: DIVLTQSPSSLSASVGDRATISCRASESVSFLGINLIHWYQQKPGQAPKLLIYLASNLETGVPARFSGSGSGTDFTLTISSVEPEDVAVYYCLQSRTLPRTFGQGTKVEIKGSTSGSGKPGSGEGSTKGQIQLVQSGPELKKPGGSVKISCAASGYTFTSYSINWVRQAPGKGLEWVGWINTETREPAYAQGFTGRFTFSADTSKSTAYLQMNSLRAEDTAVYYCALDYLYSLDFWGQGTLVTVSS
notes: as for B1
B12: CAR comprising scFv-CAS2 (C2) (SEQ ID NO: 61) (other)
chain: DIVLTQSPASLAVSPGQRATISCRASESVTILGSHLIHWYQQKPGQPPKLLIQLASNVQTGVPARFSGSGSRTDFTLTISSLEPEDVAVYYCLQSRTIPRTFGQGTKVEIKGSTSGSGKPGSGEGSTKGQITLKESGPTLVKPTQTLTLSCKASGYTFTDYSINWVRRAPGKGLEWMGWINTETREPAYAYDFRGRFVFSLDTSVSMAYLQISSLKAEDTAVYYCALDYSYAMDYWGQGTLVTVSS
notes: as for B1
B13: CAR comprising scFv-Yi2 (SEQ ID NO: 55) (other)
chain: DIQLTQSPSSLSASVGDRVTITCRASQSVTILGSHLIHWYQQKPGKAPKLLIQLASNVQTGVPSRFSGSGSGTDFTLTISSLQPEDVATYYCLQSRTIPRTFGQGTKLEIKGSTSGSGKPGSGEGSTKGQVQLVQSGGGLVQPGRSVKLSCAASGYTFTDYSINWVRQAPGKGLEWVGWINTETREPAYAYDFRGRFTISRDTSKNTAYLQMNSLRAEDTAVYYCARDYSYAMDYWGQGTLVTVSS
notes: as for B1
B14: CAR comprising scFv-J4 (SEQ ID NO: 52) (other)
chain: DIVMTQSPDSLSVSLGERATINCRASESVTILGSHLIHWYQQKPGQPPKLLIQLASNVQTGVPDRFSGSGSGTDFTLTISSLQAEDVAVYYCLQSRTIPRTFGGGTKVEIKGSTSGSGKPGSGEGSTKGQIQLVQSGAEVKKPGESVKISCKASGYTFTDYSINWVRQAPGQGLKWMGWINTETREPAYAYDFRGRFAFSLDTSASTAYLQISSLKAEDTAVYFCALDYSYAMDYWGQGTLVTVSS
notes: as for B1

Molecular target: T1, human BCMA on cells (human, UniProt Q02223 1-184)
T1 sequence: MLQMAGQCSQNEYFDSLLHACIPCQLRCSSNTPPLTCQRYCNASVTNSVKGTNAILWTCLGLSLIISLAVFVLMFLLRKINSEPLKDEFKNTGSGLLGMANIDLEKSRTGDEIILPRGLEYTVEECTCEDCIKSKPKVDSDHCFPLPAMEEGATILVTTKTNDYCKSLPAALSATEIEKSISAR
Test: cell-based or functional assay

**Q.** With B1 as the binder, how does the “Killing (% killed), Effector:target ratio of 1:2” value read?
**A.** 85%

**Q.** With B2 as the binder, how does the “Killing (% killed), Effector:target ratio of 1:2” value read?
**A.** 81%

**Q.** Which “Killing (% killed), Effector:target ratio of 1:2” value does the source give for B3 here?
**A.** 7%

**Q.** With B4 as the binder, how does the “Killing (% killed), Effector:target ratio of 1:2” value read?
**A.** 83%

**Q.** B5 was tested. Which “Killing (% killed), Effector:target ratio of 1:2” value did it give?
**A.** 86%

**Q.** With B6 as the binder, how does the “Killing (% killed), Effector:target ratio of 1:2” value read?
**A.** 78%

**Q.** For B7, which “Killing (% killed), Effector:target ratio of 1:2” value is on record?
**A.** 26%

**Q.** How did the “Killing (% killed), Effector:target ratio of 1:2” value turn out when B8 was run?
**A.** 3%

**Q.** How did the “Killing (% killed), Effector:target ratio of 1:2” value turn out when B9 was run?
**A.** 0%

**Q.** For B10, which “Killing (% killed), Effector:target ratio of 1:2” value is on record?
**A.** 83%

**Q.** For B11, which “Killing (% killed), Effector:target ratio of 1:2” value is on record?
**A.** 77%

Molecular target: T1, human BCMA on cells
Test: cell-based or functional assay
Remark: another data set of the same source

**Q.** B1 was tested. Which “Killing (% killed), Effector:target ratio of 1:10” value did it give?
**A.** 85%

**Q.** Which “Killing (% killed), Effector:target ratio of 1:10” value does the source give for B10 here?
**A.** 83%

Molecular target: T2, phycoerythrin (PE)-conjugated BCMA (Recombinant Human TNFRSF17 protein, Fc/His-tagged, R-PE labeled); Creative … (human, UniProt Q02223 1-54, R-PE labeled)
T2 construct: Bought reagent; also called BCMA-PE; not shown: Fc/His tag of the bought reagent
T2 sequence: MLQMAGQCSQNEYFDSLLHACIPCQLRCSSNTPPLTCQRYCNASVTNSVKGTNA
Test: flow cytometry; CAR T cells stained with BCMA-PE, 3 days after electroporation
Procedure: (§1) CAR T cells obtained from the above-described process were tested for viability, CAR protein expression, BCMA binding, and cytotoxicity, i.e., the ability to kill BCMA+ myeloma (tumor) cells. Viability, CAR expression, and BCMA binding were determined by flow cytometry on a GUAVA® […]® 12HT Flow cytometer (EMD Millipore). To test viability, a sample of the CAR T cells was mixed with propidium iodide and run on the flow cytometer with electronic gating on fluorescence in the near infrared channel. To test CAR protein expression and BCMA binding, a sample of the CAR T cells was incubated with 0.4 ug/mL of phycoerythrin (PE)-conjugated BCMA (Recombinant Human TNFRSF17 protein, Fc/His-tagged, R-PE labeled; Creative Biomart, Shirley, N.Y.). CAR expression was assessed on the flow cytometer with electronic gating on fluorescence in the yellow channel to detect presence or absence of emission from BCMA-PE on CAR-positive and CAR-negative cells. BCMA binding was determined by measuring the intensity of fluorescence in the yellow channel to determine the relative quantity of BCMA-PE bound to labelled CAR-positive cells. For the viability, expression, and BCMA binding assays, CD8+ T cells electroporated without mRNA (CAR-negative T Cells) were tested as a parallel control.
For each of the mRNA constructs, CAR T cells were prepared by transfection into human CD8+ cells, as described in Example 1. The CAR T cells made from each mRNA construct were then tested 3 days after electroporation for BCMA binding and tumor killing, as described in Example 1.

**Q.** How did the “BCMA Binding (arbitrary units)” value turn out when B1 was run?
**A.** 343 arbitrary units

**Q.** Which “BCMA Binding (arbitrary units)” value does the source give for B2 here?
**A.** 269 arbitrary units

**Q.** For B3, which “BCMA Binding (arbitrary units)” value is on record?
**A.** 446 arbitrary units

**Q.** With B4 as the binder, how does the “BCMA Binding (arbitrary units)” value read?
**A.** 404 arbitrary units

**Q.** B5 was tested. Which “BCMA Binding (arbitrary units)” value did it give?
**A.** 173 arbitrary units

**Q.** How did the “BCMA Binding (arbitrary units)” value turn out when B6 was run?
**A.** 439 arbitrary units

**Q.** With B7 as the binder, how does the “BCMA Binding (arbitrary units)” value read?
**A.** 496 arbitrary units

**Q.** B8 was tested. Which “BCMA Binding (arbitrary units)” value did it give?
**A.** 189 arbitrary units

**Q.** With B9 as the binder, how does the “BCMA Binding (arbitrary units)” value read?
**A.** 310 arbitrary units

**Q.** How did the “BCMA Binding (arbitrary units)” value turn out when B10 was run?
**A.** 381 arbitrary units

**Q.** With B11 as the binder, how does the “BCMA Binding (arbitrary units)” value read?
**A.** 230 arbitrary units

Molecular target: T2, phycoerythrin (PE)-conjugated BCMA …
Test: as above
Remark: another data set of the same source
Procedure: as §1
Numerous CAR-encoding mRNA constructs were prepared using the mRNA construct of SEQ ID: 29 as a starting point (which encodes a CAR of sequence SEQ ID: 19 and comprises the scFv of sequence SEQ ID: 48). These constructs encoded the same or substantially the same amino acid residues in the scFv complementary-determining regions (CDRs) but varied with respect to the amino acid residues in the scFv framework regions. In making these variations, the experimenter's intent was to humanize the scFv framework regions without reducing BCMA-binding and tumor-killing properties of CAR T cells that express the CAR. For each of the mRNA constructs, CAR T cells were prepared by transfection into human CD8+ cells, substantially as described in Example 1. The CAR T cells made from each mRNA construct were then tested 3 days after electroporation for BCMA binding and/or tumor killing, as substantially described in Example 1.

**Q.** Which results are given for B1?
**A.** BCMA Binding: 460 relative (SEQ ID: 48 = 100); BCMA Binding (relative to SEQ ID: 54): 124 relative to SEQ ID: 54 = 100

**Q.** Which “BCMA Binding” value does the source give for B10 here?
**A.** 382 relative (SEQ ID: 48 = 100)

**Q.** For B12, which “BCMA Binding” value is on record?
**A.** 34 relative (SEQ ID: 48 = 100)

**Q.** For B13, which “BCMA Binding (relative to SEQ ID: 48)” value is on record?
**A.** 12 relative to SEQ ID: 48 = 100

**Q.** Which “BCMA Binding (relative to SEQ ID: 48)” value does the source give for B14 here?
**A.** 82 relative to SEQ ID: 48 = 100
